In assay [1] the target is HLA-A*02:01. The experiment in a line: IEDB peptide-MHC binding, purified MHC/competitive/fluorescence; ≥ and ≤ were set here for values at or beyond the usual limits of such assays.
The target of another assay is HLA-A*03:01. The description is as above.
The target in another assay is HLA-B*53:01. The experiment in a line: IEDB peptide-MHC binding, purified MHC/competitive/radioactivity; filed as Kd, often an IC50 or EC50 that approximates it; ≥ and ≤ were set here for values at or beyond the usual limits of such assays.
Assay [2] addresses HLA-B*51:01. The description is as above.
Assay [3] addresses HLA-B*35:01. The description is as above.
The target in a further assay is HLA-B*54:01. The assay is described as above.
Assay [4] deals with HLA-A*11:01. The experiment in a line: IEDB peptide-MHC binding, purified MHC/direct/fluorescence; filed as Kd, often an IC50 or EC50 that approximates it; ≥ and ≤ were set here for values at or beyond the usual limits of such assays. As to conditions: source organism: SARS-CoV1.
Assay [5] has as its target HLA-B*07:02. The description is as above. Conditions: source organism: SARS-CoV1.
Assay [6] addresses HLA-A*02:01. The assay is described as above. Conditions: source organism: SARS-CoV1.
Assay [7] has as its target HLA-A*11:01. The assay can be described thus: IEDB peptide-MHC binding, purified MHC/competitive/fluorescence; ≥ and ≤ were set here for values at or beyond the usual limits of such assays.
Assay [8] concerns the target HLA-B*07:02. The experiment in a line: IEDB peptide-MHC binding, purified MHC/competitive/radioactivity; filed as Kd, often an IC50 or EC50 that approximates it; ≥ and ≤ were set here for values at or beyond the usual limits of such assays.
For another assay, the target named is HLA-B*08:01. The assay can be described thus: IEDB peptide-MHC binding, purified MHC/competitive/fluorescence; filed as Kd, often an IC50 or EC50 that approximates it; ≥ and ≤ were set here for values at or beyond the usual limits of such assays.
In the next assay the target is HLA-A*24:02. The assay can be described thus: IEDB peptide-MHC binding, purified MHC/competitive/fluorescence; ≥ and ≤ were set here for values at or beyond the usual limits of such assays.
The target in the next assay is HLA-A*69:01. The experiment in a line: IEDB peptide-MHC binding, purified MHC/competitive/fluorescence; filed as Kd, often an IC50 or EC50 that approximates it; ≥ and ≤ were set here for values at or beyond the usual limits of such assays. As to conditions: source organism: Homo sapiens.
The next assay has as its target HLA-B*83:01. The description is as above.
The next assay deals with HLA-B*57:01. The assay is described as above. As to conditions: source organism: Homo sapiens.
Another assay has as its target HLA-B*15:42. The assay is described as above.
Assay [9] has as its target HLA-B*51:01. The assay is described as above.
The target of the next assay is HLA-B*45:06. The description is as above.
A further assay concerns the target HLA-B*46:01. The description is as above. As to conditions: source organism: Homo sapiens.
For the next assay, the target named is HLA-B*27:03. The description is as above. Conditions: source organism: Homo sapiens.
In assay [10] the target is HLA-A*02:01. The description is as above. As to conditions: source organism: Homo sapiens.
The target of a further assay is HLA-B*39:01. The description is as above.
The target of a further assay is HLA-A*01:01. The assay can be described thus: IEDB peptide-MHC binding, purified MHC/direct/fluorescence; filed as Kd, often an IC50 or EC50 that approximates it; ≥ and ≤ were set here for values at or beyond the usual limits of such assays. Conditions: source organism: Mus musculus.
For assay [11], the target named is HLA-B*35:01. The experiment in a line: IEDB peptide-MHC binding, purified MHC/competitive/fluorescence; filed as Kd, often an IC50 or EC50 that approximates it; ≥ and ≤ were set here for values at or beyond the usual limits of such assays. As to conditions: source organism: Yersinia pestis Antiqua.
The mark [12] stands for this setting: source organism: Sudan ebolavirus.
Where [13] appears, read: source organism: SARS coronavirus Tor2.
Where [14] appears, read: source organism: Vaccinia virus WR.
Setting [15] is: source organism: Zaire ebolavirus.
Where [16] appears, read: source organism: Triticum aestivum.
Setting [17] is: source organism: Vaccinia virus Copenhagen.
Setting [18] is: source organism: Escherichia coli 536.
Where [19] appears, read: source organism: Human herpesvirus 4 strain B95-8.
The mark [20] stands for this setting: source organism: Yersinia pestis Antiqua.
Where [21] appears, read: source organism: Mammarenavirus machupoense.

On to LRRWGGTCR, for which the IC50 with HLA-A*02:01 [1] (setting [12]) is at least 645 µM; with HLA-A*03:01 (setting [12]) it was at least 200 µM.
TPRDLGACI: the Kd was at least 42 µM with HLA-B*53:01 (setting [13]); 3.89 µM with HLA-B*51:01 [2] (setting [13]); 12.9 µM in the assay with HLA-B*35:01 [3] (setting [13]); 3.88 µM in the assay with HLA-B*54:01 (setting [13]); 9.73 µM with HLA-A*11:01 [4]; 0.188 µM in the assay with HLA-B*07:02 [5]. In the assay with HLA-A*02:01 [6], this sequence gave a Kd of at least 36 µM.
As to QAFYTRVLK, the IC50 came to 0.311 µM with HLA-A*11:01 [7] (setting [14]) and 1.47 µM in the assay with HLA-A*03:01 (setting [14]).
As for TSPQSLTTK, the IC50 worked out at 1.76 µM in the assay with HLA-A*11:01 [7] (setting [15]) and 22.3 µM with HLA-A*03:01 (setting [15]).
QPQYSQPQQPI: the Kd with HLA-B*53:01 (setting [16]) was at least 63.7 µM; in the assay with HLA-B*51:01 [2] (setting [16]), 11.4 µM; with HLA-B*07:02 [8] (setting [16]), at least 64 µM; with HLA-B*35:01 [3] (setting [16]), at least 63.7 µM; with HLA-B*54:01 (setting [16]), at least 63.7 µM.
In the assay with HLA-B*08:01 (source organism: Escherichia coli), ENALRGVAV came in with a Kd of 0.377 µM.
In the case of VYGNIKHKE, the figures for the IC50 with HLA-A*11:01 [7] (setting [17]), in the assay with HLA-A*24:02 (setting [17]) and in the assay with HLA-A*03:01 (setting [17]) were 69.1 µM, 34.9 µM and at least 158 µM, respectively.
With SVDSDHLGY, the Kd in the assay with HLA-A*69:01 is at least 20 µM; in the assay with HLA-B*83:01 (source organism: Homo sapiens), at least 5 µM; with HLA-B*57:01, at least 20 µM; in the assay with HLA-B*15:42 (source organism: Homo sapiens), at least 5 µM; with HLA-B*51:01 [9] (source organism: Homo sapiens), at least 20 µM; with HLA-B*45:06 (source organism: Homo sapiens) it was at least 5 µM. For the same sequence, the Kd in the assay with HLA-B*46:01 is at least 20 µM; with HLA-B*27:03 it was at least 20 µM; with HLA-A*02:01 [10], at least 20 µM; with HLA-B*39:01 (source organism: Homo sapiens), at least 20 µM; with HLA-A*01:01, 0.0007 µM.
Regarding FGGVPREVL, the Kd with HLA-B*08:01 (setting [18]) and in the assay with HLA-B*39:01 (setting [18]) was at least 20 µM in each case.
Regarding DEVEFLGHY, the Kd in the assay with HLA-B*83:01 (setting [19]), in the assay with HLA-B*15:42 (setting [19]) and in the assay with HLA-B*45:06 (setting [19]) was at least 5 µM throughout.
As for LPRVVGGKTV, the dissociation constant Kd with HLA-B*53:01 (setting [14]) is 12.4 µM; in the assay with HLA-B*51:01 [2] (setting [14]), 0.0326 µM; in the assay with HLA-B*07:02 [8] (setting [14]) it was 0.000306 µM; with HLA-B*35:01 [3] (setting [14]) it was at least 28.8 µM; in the assay with HLA-B*54:01 (setting [14]), 0.0391 µM.
Turning to MPARLWLCL, the Kd in the assay with HLA-B*51:01 [9] (setting [20]) is at least 20 µM; with HLA-B*08:01 (setting [20]), 0.383 µM; in the assay with HLA-B*35:01 [11], 0.0008 µM; with HLA-B*39:01 (setting [20]) it was 0.108 µM.
RLKTTENSF: the Kd with HLA-B*08:01 (source organism: Influenza A virus (A/Northern Territory/60/1968(H3N2))) was at least 20 µM.
Turning to TPNQPSAEF, the Kd in the assay with HLA-B*53:01 (setting [21]) turned out to be 0.565 µM; in the assay with HLA-B*51:01 [2] (setting [21]), 13 µM; in the assay with HLA-B*07:02 [8] (setting [21]), 0.076 µM; in the assay with HLA-B*35:01 [3] (setting [21]) it was 0.0403 µM; with HLA-B*54:01 (setting [21]) it was 18.7 µM.
In the case of VSSGKNIKR, the IC50 with HLA-A*11:01 [7] (setting [15]) is 4.31 µM; in the assay with HLA-A*24:02 (setting [15]), at least 163 µM; with HLA-A*02:01 [1] (setting [15]), at least 140 µM; with HLA-A*03:01 (setting [15]) it was at least 82.2 µM.
Take RPTPKKMNIV: the dissociation constant Kd in the assay with HLA-B*53:01 (setting [14]) is at least 69.9 µM; with HLA-B*51:01 [2] (setting [14]), at least 69.6 µM; with HLA-B*07:02 [8] (setting [14]) it was 0.0524 µM; in the assay with HLA-B*35:01 [3] (setting [14]) it was at least 48.8 µM; with HLA-B*54:01 (setting [14]), 5.86 µM.
ETLGYCMIR: the values for the IC50 in the assay with HLA-A*11:01 [7] (setting [14]) and with HLA-A*03:01 (setting [14]) were 25.2 µM and at least 248 µM, respectively.

(Values after the Immune Epitope Database (IEDB).)
